The values below come from patent publication US20090263894A1 (AbbVie / Abbott, published 2009).

Assay [1] addresses T1, human NGAL (C87S) produced in E. coli, NGAL(+)mut8 (human, UniProt P80188 21-198, 15N/2H or 13C/15N isotope label (NMR, Example 8); BHQ-10S quencher label (KD titrations, Example 9)).
T1 construct: also called BHQ-NGAL; isotope-labeled human NGAL
T1 chain: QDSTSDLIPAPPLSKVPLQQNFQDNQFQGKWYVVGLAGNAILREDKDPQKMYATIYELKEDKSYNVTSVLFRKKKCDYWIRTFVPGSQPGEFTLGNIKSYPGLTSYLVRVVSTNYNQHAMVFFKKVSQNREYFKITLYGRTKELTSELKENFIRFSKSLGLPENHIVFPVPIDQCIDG
The assay is described as follows: DC-FCCS sandwich formation in solution; second antibody mAb 2322. How it is done: (§1) Samples were placed in a 96-microwell optical bottom plate (Nalge Nunc International, Rochester, N.Y.). The excitation wavelength was set at 810 nm, 3 mW on the sample. Sampling rate was set at 200 KHz and 10 million points were collected for each measurement. Each sample was measured twice. Experiments were performed on each sample after one-hour incubation.
(§2) Labeled antibodies were mixed at equal concentration (40 μL of 10 nM mAbs) and ligand (15 nM NGAL) was added to the solution. Cross-correlation curves before and after adding NGAL were calculated from the data sets acquired in each channel and the data were normalized.
(§3) For illustration purposes, a relative number was assigned to each antibody pair, which, in fact, is the ratio of Gx(0) values before and after the addition of NGAL to the antibodies (Table 13). All ratio values were corrected for the background. A value of “1” indicates no sandwich formation, values between 1.1 and 2.5 indicate a poor sandwich formation, and all values above 2.6 indicate productive antibody pairing.

Assay [2] has as its target T2, human NGAL antigen (Neutrophil Gelatinase Associated Lipocalin) (human, UniProt P80188 21-198, biotin label in the hybridoma EIAs).
T2 construct: also called NGAL-Bt; biotin labeled NGAL
The assay is described as follows: SPR (BIAcore): mAb captured on anti-mouse Fc, 100 nM NGAL. As for the experimental part:
Using BIAcore, NGAL hybrid supernatants are evaluated for relative binding affinity to NGAL and grouped accordingly in NGAL binding epitope groups. The affinity assay was completed on a goat anti-mouse IgG Fc Capture Biosensor as follows. Flow cells were first equilibrated with a running buffer (hereinafter “Running Buffer”) that contains HBS-EP buffer spiked with 0.1% BSA and 0.1% CM-Dextran), at 10 μL/min. Next, 13 μL of supernatant was floated across individual flow cells capturing anti-NGAL antibody from the supernatant onto the biosensor, and with one flow cell being left blank as a reference flow cell. The flow cells then were washed for 5 minutes at 50 μL/min with Running Buffer, and 150 μL of NGAL antigen at a 100 nM concentration was injected across the chip followed by 5 minutes of Running Buffer. The relative binding kinetics, association and dissociation, were monitored via sensorgrams. The sensorgrams were analyzed using Scrubber 2.0 software (BioLogic Software Pty Ltd., Australia) to determine association and dissociation rates, as well as overall KD.

Assay [3] addresses T1, human NGAL (C87S) produced in E. coli, …. The assay is described as follows: DC-FCCS sandwich formation in solution; second antibody mAb 903. As for the experimental part:
as §1, §2, §3

Assay [4] addresses T3, wild-type NGAL antigen displayed on yeast (AGA2 fusion) (human, UniProt P80188 21-198).
T3 construct: also called WT
The assay is described as follows: flow cytometry, mAb titrated on yeast displaying NGAL. How it is done:
The side chain of each of the NGAL rAg residues identified from the epitope selections was altered by site-directed mutagenesis to alanine to confirm the functional epitope (direct contact residues) of each NGAL mAb subclone.
The change in Gibbs free binding energy (ΔΔG_Ala-WT) was determined to assess the energetic impact of each alanine substitution for mAb binding. The change in Gibbs free binding energy upon alanine substitution was calculated using the following equation [2],
For these experiments, observed fluorescence (F) was used to solve for KD using equation [1]. The KD derived from equation [1] one was then used in equation [2] to derive the change in Gibbs free binding energy upon alanine substitution. The KD is read from the abscissa of each of the curves at the inflection point.

The target of assay [5] is T1, human NGAL (C87S) produced in E. coli, …. The assay is described as follows: fluorescence quenching titration: ALEXA 488-mAb with BHQ-NGAL in solution. As for the experimental part:
The equilibrium dissociation constants (KD) of NGAL and six anti-NGAL antibodies were measured in direct binding experiments. […] After 30 minutes incubation, all samples were measured on an SLM 8100 photon counting spectrofluorimeter. Samples were excited at 480 nm, and the emission was collected through a 530 nm (30 nm bandwidth) interference filter (Chroma Technology Corp., Rockingham, Vt.). All binding measurements were performed in 10 mM HEPES buffer, pH 7.4, containing 0.15 M NaCl, 3 mM EDTA, and 0.005% surfactant P20.
where Ligandₜₒₜₐₗ and ABSₜₒₜₐₗ are the BHQ-NGAL concentration and total antibody binding sites, respectively, and Fbound is the fraction of bound antibody sites. The binding data were fitted with a simple binding model to obtain the equilibrium dissociation constant (KD) according to equation [4]: […]

The target of assay [6] is T4, Mutant C87S NGAL rAg (CHO cell clone #734) (human, UniProt P80188 21-198, glycosylated (CHO)).
T4 construct: also called NGAL mutant C87S antigen; mutant C87S NGAL rAg CHO 734
T4 chain: T1 chain
The assay is described as follows: KinExA, IgG in solution. As for the experimental part:
(§4) The amount of free binding sites was determined by injecting the antibody/human NGAL reaction mixture over human NGAL immobilized on solid-phase Polymethyl-methacrylate (PMMA) beads. The free anti-NGAL antibody bound to the human NGAL coated beads were subsequently detected using the fluorescent CY5-conjugated goat anti-mouse polyclonal antibody (GAM-Cy5). The degree of GAM-Cy5 bound was proportional to the amount of anti-NGAL IgG bound to the human NGAL-coated beads. The KD was determined by analyzing the amount of free binding sites versus the amount of antigen present in the reaction sample using software provided by the manufacturer (Sapidyne Instruments, Boise, Id.). Experiments were performed in a PBS, pH 7.4, and 1% BSA reaction diluent.

The target of assay [7] is T5, Wild-type NGAL rAg (CHO clone #662) (human, UniProt P80188 21-198, glycosylated (CHO)).
T5 construct: also called NGAL wild-type antigen; wild-type NGAL rAg CHO 662
As to the kind of experiment: KinExA, IgG in solution. How it is done: as §4

B1: anti-NGAL monoclonal antibody 1-903-430 (antibody, V domains shown)
VH: KIQLVQSGPELKKPGETVKISCKASGYTFTNYGMNWVKQAPGKGLKWMGWININTGEPTYAEEFKGRFAFSLETSATTAFLQINNLKNEDTATYLCARDSYSGGFDYWGQGTIVTVSS
VL: DIVMTQSPSSLSVSAGEKVTLSCKSSQSLLISGDQKNYLAWYQQKPGQPPKLLIYGASTRDSGVPDRFTGSGSGADFTLTISSVQAEDLAVYYCQNDHSFPPTFGAGTKLELKR
For B1, the “ratio of Gx(0) before and after adding NGAL” value in assay [1] amounted to 3.7; in assay [3], 1. Moreover, the Kd came out at 1.01 nM in assay [2]; 0.204 nM in assay [4]; 1.2 nM in assay [5]; 1.1 nM in assay [6]; 0.32 nM in assay [7]. Further, in assay [2], the off-rate constant (koff) worked out at 0.000272 s⁻¹. Further, in assay [2], the kon came to 269000 M⁻¹ s⁻¹. Besides, the “ΔKD (KD against KD of WT)” value in assay [4] was determined as 1 fold. Besides, the “ΔΔG Ala-WT” value in assay [4] turned out to be 0 kcal/mol.

B2: anti-NGAL monoclonal antibody 1-2322-455 (antibody, V domains shown)
VH: EVQLVESGGGLVQPGGSLKLSCAASGFTFNNYYMSWVRQTPERRLEWVAYISSSGGSTYYSDSVRGRFTISRDTARNTLYLQMTSLKSEDTAMYYCARHFGDYSYFDYWGQGTTLTVSS
VL: DIQMTQSPASLSASVGETVTITCRASENFYSYLAWYQQKQGKSPQLLVYNAKTLAEGVPSRFSGSGSGTQFSLKINSLQPEDFGTYYCQHHYDIPLTFGAGTKLELKR
As for B2, the “ratio of Gx(0) before and after adding NGAL” value in assay [1] was 0.7; in assay [3] it was 3.5. Further, the Kd is 0.155 nM in assay [2]; 0.0081 nM in assay [4]; 0.06 nM in assay [5]; 0.023 nM in assay [6]; 0.024 nM in assay [7]. This molecule also gave a koff in assay [2] of 7.28e-05 s⁻¹. Moreover, the kon in assay [2] amounted to 468000 M⁻¹ s⁻¹. The “ΔKD (KD against KD of WT)” value in assay [4] turned out to be 1 fold. Besides, the “ΔΔG Ala-WT” value in assay [4] stood at 0 kcal/mol.
